Values belong to the binder of their own block, whether it stands above or below them.
Key:
[1] = target: T1, rHuman IGF-1 sR, CF (R&D Systems Cat#391-GR) (human, UniProt P08069 31-932); test: Multispot ECL (MSD), antigen spotted on plate, Fab 360 nM; blank spot 462
T1 construct: Bought recombinant soluble receptor; also called insulin-like growth factor-1 soluble receptor

[2] = target: T2, rHuman ErbB2/Fc Chimera, CF (R&D Systems Cat#1129-ER) (human, UniProt P04626 23-652); test: as above
T2 construct: Bought recombinant protein; also called human epidermal growth factor 2 receptor (ErbB2); Fc part of the bought chimera not given

[3] = target: T3, rHuman CD44/Fc Chimera, CF (R&D Systems Cat#3660-CD) (human, UniProt P16070 21-220); test: as above
T3 construct: Bought recombinant protein; Fc part of the bought chimera not given

[4] = target: T4, rHuman HGF R/c-MET/Fc Chimera, CF (R&D Systems Cat#358-MT/CF) (human, UniProt P08581 25-932); test: as above
T4 construct: Bought recombinant protein; also called HGF R/Fc; hepatocyte growth factor receptor (HGF R/c-Met); Fc part of the bought chimera not given

[5] = target: T5, rHuman P-Cadherin/Fc Chimera, CF (R&D Systems Cat#861-PC) (human, UniProt P22223 108-654); test: as above
T5 construct: Bought recombinant protein; Fc part of the bought chimera not given

[6] = target: T6, rHuman Erythropoietin R/Fc Chimera, CF (R&D Systems Cat#963-ER) (human, UniProt P19235 25-250); test: as above
T6 construct: Bought recombinant protein; also called EPO R/Fc; Epo R; Fc part of the bought chimera not given
T6 sequence (looked up): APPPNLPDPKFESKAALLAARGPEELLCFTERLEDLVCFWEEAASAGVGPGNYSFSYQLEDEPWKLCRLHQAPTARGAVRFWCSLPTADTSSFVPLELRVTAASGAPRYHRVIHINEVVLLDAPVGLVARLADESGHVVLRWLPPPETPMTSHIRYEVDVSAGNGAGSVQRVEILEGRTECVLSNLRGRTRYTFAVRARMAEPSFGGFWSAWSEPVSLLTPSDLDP

[7] = target: T1, rHuman IGF-1 sR, CF (R&D Systems …); test: Multispot ECL (MSD), antigen spotted on plate, Fab 36 nM; blank spot 413
[8] = target: T2, rHuman ErbB2/Fc Chimera, CF (R&D …); test: as above
[9] = target: T3, rHuman CD44/Fc Chimera, CF (R&D Systems …); test: as above
[10] = target: T4, rHuman HGF R/c-MET/Fc Chimera, CF (R&D …); test: as above
[11] = target: T5, rHuman P-Cadherin/Fc Chimera, CF (R&D …); test: as above
[12] = target: T6, rHuman Erythropoietin R/Fc Chimera, CF …; test: as above
[13] = target: T7, rHuman ErbB2/Fc Chimera, CF (R&D Systems Cat#1129-ER) (human, UniProt P04626 23-652); test: ECL multispot (MSD), 20 nM Fab;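 note: purified Fab binding to antigens on multispot plates, read by electrochemiluminescence with a TAG-labelled detection antibody, 1 h Fab incubation at 20 °C, signal expressed relative to each well's blank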
T7 construct: Bought recombinant protein; also called human epidermal growth factor 2 receptor; Fc part of the bought chimera not given

[14] = target: T8, rHuman EGF R/Fc Chimera, CF (R&D Systems Cat#344-ER) (human, UniProt P00533 25-645); test: ECL multispot (MSD), 20 nM Fab;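 note: purified Fab binding to antigens on multispot plates, read by electrochemiluminescence with a TAG-labelled detection antibody, 1 h Fab incubation at 20 °C, signal expressed relative to each well's blank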
T8 construct: Bought recombinant protein; also called epidermal growth factor receptor; Fc part of the bought chimera not given

[15] = target: T9, rHuman Notch-1/Fc Chimera, CF (R&D Systems Cat#3647-TK) (human, UniProt P46531 19-526); test: ECL multispot (MSD), 20 nM Fab;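 note: purified Fab binding to antigens on multispot plates, read by electrochemiluminescence with a TAG-labelled detection antibody, 1 h Fab incubation at 20 °C, signal expressed relative to each well's blank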
T9 construct: Bought recombinant protein; Fc part of the bought chimera not given

[16] = target: T10, rHuman Erythropoietin R/Fc Chimera, CF (R&D Systems Cat#963-ER) (human, UniProt P19235 25-250); test: ECL multispot (MSD), 20 nM Fab;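 note: purified Fab binding to antigens on multispot plates, read by electrochemiluminescence with a TAG-labelled detection antibody, 1 h Fab incubation at 20 °C, signal expressed relative to each well's blank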
T10 construct: Bought recombinant protein; also called EPO R; EPO R/Fc; Fc part of the bought chimera not given
T10 sequence (looked up): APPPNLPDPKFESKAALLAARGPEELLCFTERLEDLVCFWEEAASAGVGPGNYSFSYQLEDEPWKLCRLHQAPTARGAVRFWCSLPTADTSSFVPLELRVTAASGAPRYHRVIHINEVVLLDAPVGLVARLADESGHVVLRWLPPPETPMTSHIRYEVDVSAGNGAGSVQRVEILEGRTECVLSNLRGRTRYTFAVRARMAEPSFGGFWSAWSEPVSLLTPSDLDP

[17] = target: T11, rHuman CD44/Fc Chimera, CF (R&D Systems Cat#3660-CD) (human, UniProt P16070 21-220); test: ECL multispot (MSD), 20 nM Fab
T11 construct: Bought recombinant protein; Fc part of the bought chimera not given

[18] = target: T12, Recombinant Human DLL4 (R&D Systems Cat#1506-D4/CF) (human, UniProt Q9NR61 27-524); test: ECL multispot (MSD), 20 nM Fab
T12 construct: Bought recombinant protein; also called delta-like protein 4; rHuman DLL4

[19] = target: T13, rHuman P-Cadherin/Fc Chimera, CF (R&D Systems Cat#861-PC) (human, UniProt P22223 108-654); test: ECL multispot (MSD), 20 nM Fab
T13 construct: Bought recombinant protein; Fc part of the bought chimera not given

[20] = target: T14, rHuman HGF R/c-MET/Fc Chimera, CF (R&D Systems Cat#358-MT/CF) (human, UniProt P08581 25-932); test: ECL multispot (MSD), 20 nM Fab
T14 construct: Bought recombinant protein; also called HGF R/Fc; hepatocyte growth factor receptor; Fc part of the bought chimera not given

[21] = target: T15, rHuman IGF-1 sR, (IGF-1 sR), CF (R&D Systems Cat#391-GR) (human, UniProt P08069 31-932); test: ECL multispot (MSD), 20 nM Fab
T15 construct: Bought recombinant soluble receptor; also called insulin-like growth factor-1 soluble receptor

[22] = target: T16, rHuman HGF R/c-MET/Fc Chimera, CF (R&D Systems Cat#358-MT/CF) (human, UniProt P08581 25-932); test: ECL multispot (MSD) binding assay, antigens spotted on plate, 20 nM Fab;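 note: fab incubated 1 h at 20 °C on antigen-spotted wells, bound Fab detected by TAG-labelled antibody, ratio of 4 or more over blank counted as a hit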
T16 construct: Bought recombinant protein; also called HGF R/Fc; hepatocyte growth factor receptor; Fc part of the bought chimera not given

[23] = target: T17, rHuman Notch-1/Fc Chimera, CF (R&D Systems Cat#3647-TK) (human, UniProt P46531 19-526); test: as above
T17 construct: Bought recombinant protein; Fc part of the bought chimera not given

[24] = target: T18, Recombinant Human DLL4 (R&D Systems Cat#1506-D4/CF) (human, UniProt Q9NR61 27-524); test: as above
T18 construct: Bought recombinant protein; also called delta-like protein 4; rHuman DLL4

[25] = target: T19, rHuman P-Cadherin/Fc Chimera, CF (R&D Systems Cat#861-PC) (human, UniProt P22223 108-654); test: as above
T19 construct: Bought recombinant protein; Fc part of the bought chimera not given

[26] = target: T20, rHuman Erythropoietin R/Fc Chimera, CF (R&D Systems Cat#963-ER) (human, UniProt P19235 25-250); test: as above
T20 construct: Bought recombinant protein; also called EPO R; Epo R; Fc part of the bought chimera not given
T20 sequence (looked up): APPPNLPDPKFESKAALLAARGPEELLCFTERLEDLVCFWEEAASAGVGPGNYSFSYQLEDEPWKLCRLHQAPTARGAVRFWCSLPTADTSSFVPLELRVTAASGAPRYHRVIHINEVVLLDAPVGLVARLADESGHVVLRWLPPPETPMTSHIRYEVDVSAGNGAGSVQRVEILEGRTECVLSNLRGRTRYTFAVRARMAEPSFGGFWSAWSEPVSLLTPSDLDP

[27] = target: T21, rHuman IGF-1 sR, (IGF-1 sR), CF (R&D Systems Cat#391-GR) (human, UniProt P08069 31-932); test: as above
T21 construct: Bought recombinant soluble receptor; The column head prints only 'IGF-1'; also called insulin-like growth factor-1 soluble receptor

[28] = target: T22, rHuman EGF R/Fc Chimera, CF (R&D Systems Cat#344-ER) (human, UniProt P00533 25-645); test: as above
T22 construct: Bought recombinant protein; also called epidermal growth factor receptor; Fc part of the bought chimera not given

[29] = target: T23, rHuman CD44/Fc Chimera, CF (R&D Systems Cat#3660-CD) (human, UniProt P16070 21-220); test: as above
T23 construct: Bought recombinant protein; Fc part of the bought chimera not given

[30] = target: T24, rHuman ErbB2/Fc Chimera, CF (R&D Systems Cat#1129-ER) (human, UniProt P04626 23-652); test: as above
T24 construct: Bought recombinant protein; also called human epidermal growth factor 2 receptor; Fc part of the bought chimera not given

ECL signal [1]: 535
ECL signal [2]: 647
ECL signal [3]: 740
ECL signal [4]: 581
ECL signal [5]: 636
ECL signal [6]: 4720
ECL signal [7]: 486
ECL signal [8]: 600
ECL signal [9]: 679
ECL signal [10]: 613
ECL signal [11]: 693
ECL signal [12]: 2980
B1: Fab VH4-28_IGHD7-27*01_IGHJ1*01 & L2_IGKJ1*01 (Fab, V domains shown)
VH: QVQLQESGPGLVKPSDTLSLTCAVSGYSISSSNWWGWIRQPPGKGLEWIGYIYYSGSTYYNPSLKSRVTMSVDTSKNQFSLKLSSVTAVDTAVYYCARTNWGAEYFQHWGQGTLVTVSS
VL: not shown

ECL signal ratio (column head gives no unit) [13]: 1.5
ECL signal ratio (column head gives no unit) [14]: 1.6
ECL signal ratio (column head gives no unit) [15]: 1.1
ECL signal ratio (column head gives no unit) [16]: 1.8
ECL signal ratio (column head gives no unit) [17]: 1.1
ECL signal ratio (column head gives no unit) [18]: 1.6
ECL signal ratio (column head gives no unit) [19]: 1.9
ECL signal ratio (column head gives no unit) [20]: 1.8
ECL signal ratio (column head gives no unit) [21]: 1.4
B2: Fab VH3-23_IGHD2-21*01>3_IGHJ6*01 H100E/S108P/Y113G (EPG) Y109P & V2-13_IGLJ2*01 (Fab, V domains shown)
VH: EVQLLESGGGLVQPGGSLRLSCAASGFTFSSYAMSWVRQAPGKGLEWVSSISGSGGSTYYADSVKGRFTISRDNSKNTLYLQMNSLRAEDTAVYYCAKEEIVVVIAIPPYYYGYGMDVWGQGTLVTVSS
VL: SSELTQDPAVSVALGQTVRITCQGDSLRSYYASWYQQKPGQAPVLVIYGKNNRPSGIPDRFSGSSSGNTASLTITGAQAEDEADYYCNSRDSSGNHLVVFGGGTKLTVL
notes: Fab; NNK mutant of the EPG heavy chain; CH1 (tags) and lambda CL come from the vectors

ECL multispot signal (ratio to blank; column not labelled) [22]: 1.8
ECL multispot signal (ratio to blank; column not labelled) [23]: 1.5
ECL multispot signal (ratio to blank; column not labelled) [24]: 1.8
ECL multispot signal (ratio to blank; column not labelled) [25]: 2
ECL multispot signal (ratio to blank; column not labelled) [26]: 2.2
ECL multispot signal (ratio to blank; column not labelled) [27]: 1.4
ECL multispot signal (ratio to blank; column not labelled) [28]: 1.6
ECL multispot signal (ratio to blank; column not labelled) [29]: 1.3
ECL multispot signal (ratio to blank; column not labelled) [30]: 1.7
B3: Fab VH3-23_IGHD2-21*01>3_IGHJ6*01 H100E/S108P/Y113G Y110E & V2-13_IGLJ2*01 (Fab, V domains shown)
VH: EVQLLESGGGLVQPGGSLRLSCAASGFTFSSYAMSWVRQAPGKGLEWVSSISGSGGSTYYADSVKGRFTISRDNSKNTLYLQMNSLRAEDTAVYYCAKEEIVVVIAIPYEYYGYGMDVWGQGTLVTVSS
VL: SSELTQDPAVSVALGQTVRITCQGDSLRSYYASWYQQKPGQAPVLVIYGKNNRPSGIPDRFSGSSSGNTASLTITGAQAEDEADYYCNSRDSSGNHLVVFGGGTKLTVL
notes: Tested as Fab made in E. coli: VH joined to CH1 (His and Flag tags), VL joined to lambda CL; also called EPG Y110E

Source: patent publication US20120316071A1 (published 2012)
